Test results taken from paper PMC5986701, “A quantitative characterization of interaction between prion protein with nucleic acids”.

B1: Lef-DNA (dsDNA)
DNA 1: GAGCTTCAAAGGGTG
DNA 2: CACCCTTTGAAGCTC
B2: NC-DNA (dsDNA)
DNA 1: GACTTGTGGAAAATCTCTAGCAGTGCAT
DNA 2: ATGCACTGCTAGAGATTTTCCACAAGTC
B3: Hm45 (structured_RNA)
RNA: GCCUCAUGGUGGUGGCUGGGGGCAGCCUCAUGGUGGUGGCUGGGG
B4: Cm47 (Cm48 in Table 2) (structured_RNA)
RNA: GCCCCAUGGAGGUGGCUGGGGCCAGCCUCAUGGAGGUGGCUGGGGC
B5: Mm38 (structured_RNA)
RNA: CAGGGUGGCACCUGGGGGCAGCCCCACGGUGGUGGCUG
B6: Ym44 (structured_RNA)
RNA: GUCAAGGACAAGGUCAAGGUCAAGGUUCUUUUACUGCUUUGGGC
B7: RQT157 (RQ157) (structured_RNA)
RNA: GGGGUUUCGAACCGGAAUUUGAGGGAUGCCUAGGCAUCCCCCGUGCGUCCCUUUACGAGGGAUUGUCGACUCUAGAGGAUCCGGUACCUGAGGGAUGCCUAGGCAUCCCCGCGCGCCGGUUUCGGACCUCCAGUGCGUGUUACCGCACUGUCGACCC
B8: MNV (structured_RNA)
RNA: GGGUUCAUAGCCUAUUCGGCUUUUAAAGGACCUUUUUCCCUCGCGUAGCUAGCUACGCGAGGUGACCCCCCGAAGGGGGGUGCCCC
B9: RQ11+12 (structured_RNA)
RNA: GGGGUUUCCAACCGGAAUUUGAGGGAUGCCUAGGCAUCCCCCGUGCGUCCCUUUACGAGGGAUUGUCGACUCUAGUCGACGUCUGGGCGAAAAAUGUACGAGAGGACCUUUUCGGUACAGACGGUACCUGAGGGAUGCCUAGGCAUCCCCGCGCGCCGGUUUCGGACCUCCAGUGCGUGUUACCGCACUGUCGACCC

Target: T1, alpha-PrP (human recombinant prion protein) (human, UniProt P04156 23-230)
Test: fluorescence anisotropy; pH 5
Details: not given

B1 and B2 are within error of each other in Kd: 1.25 ± 0.32 µM for the first, 1.11 ± 0.23 µM for the second.

Same assay, conditions: pseudoknot

Going from B3 to B4, the Kd falls from 2.9 ± 0.41 µM to 1.51 ± 0.35 µM (1.9-fold). The second binds more tightly here.

Compared with B5, B6 is 2.3-fold lower in Kd: 3.82 ± 0.4 µM for the first, 1.63 ± 0.4 µM for the second.

Target: T1, alpha-PrP (human recombinant prion …)
Test: fluorescence anisotropy; pH 7.2
Details: not given

B7 and B8 are within error of each other in Kd: 2.89 ± 1.5 µM for the first, 4.15 ± 0.61 µM for the second.

First: B9
Second: B1
The Kd of the first is 2.6-fold lower: 2.2 ± 1.5 µM for the first, 5.73 ± 0.57 µM for the second.

With B2 the Kd was 1.29 ± 0.21 µM.

Same assay, conditions: pseudoknot

First: B3
Second: B4
The Kd of the first is 2.1-fold higher: 3.34 ± 0.15 µM for the first, 1.61 ± 0.4 µM for the second. The second binds more tightly here.

B6 was tested, and the Kd was 1.79 ± 0.57 µM.
